From patent US20060172377 come the findings set out here.

The test system of data set [1] is T1, SF370.1 recombinase (Streptococcus pyogenes phage SF370.1).
T1 sequence: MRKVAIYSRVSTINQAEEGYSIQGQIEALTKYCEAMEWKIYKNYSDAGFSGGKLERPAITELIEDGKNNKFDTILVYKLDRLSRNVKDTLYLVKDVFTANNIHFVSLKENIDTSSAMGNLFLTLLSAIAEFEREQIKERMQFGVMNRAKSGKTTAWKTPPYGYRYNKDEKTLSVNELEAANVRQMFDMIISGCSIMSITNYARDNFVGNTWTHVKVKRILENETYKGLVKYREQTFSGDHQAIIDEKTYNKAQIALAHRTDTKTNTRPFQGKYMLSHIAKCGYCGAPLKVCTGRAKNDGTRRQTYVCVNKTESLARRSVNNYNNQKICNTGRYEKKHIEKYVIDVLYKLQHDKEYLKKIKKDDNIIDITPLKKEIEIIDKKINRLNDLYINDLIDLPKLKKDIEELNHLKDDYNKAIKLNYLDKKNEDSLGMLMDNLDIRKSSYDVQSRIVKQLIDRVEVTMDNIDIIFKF
In words: cell_activity. The settings on record: integration of attP (N3) plasmid at pseudo attB; 9 clones without recombinase; 35 of 100 rescued at this site.

Data set [2] concerns the target T2, SPβc2 recombinase (yokA) (Bacillus subtilis phage SPβc2) (UniProt O32006).
T2 sequence: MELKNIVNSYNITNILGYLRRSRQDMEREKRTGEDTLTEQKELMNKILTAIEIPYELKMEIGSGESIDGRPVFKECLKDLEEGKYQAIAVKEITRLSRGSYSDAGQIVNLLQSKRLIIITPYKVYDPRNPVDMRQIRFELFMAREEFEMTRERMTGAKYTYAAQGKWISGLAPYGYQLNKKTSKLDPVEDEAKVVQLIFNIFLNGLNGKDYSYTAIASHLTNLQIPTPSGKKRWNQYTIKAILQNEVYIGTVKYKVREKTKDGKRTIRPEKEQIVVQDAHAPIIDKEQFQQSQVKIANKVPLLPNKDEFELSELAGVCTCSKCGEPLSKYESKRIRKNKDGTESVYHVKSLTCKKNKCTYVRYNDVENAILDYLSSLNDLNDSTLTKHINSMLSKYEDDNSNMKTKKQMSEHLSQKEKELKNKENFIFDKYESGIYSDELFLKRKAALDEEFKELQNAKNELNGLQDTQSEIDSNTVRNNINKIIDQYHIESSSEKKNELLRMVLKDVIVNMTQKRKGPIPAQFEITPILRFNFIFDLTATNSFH
The data set can be described thus: cell_activity. As to conditions: integration of attP (N1) plasmid at pseudo attB; 0 clones without recombinase; 15 integrations at this site.

As for SF370.1 human pseudo attB, in data set [1], the activity (hygromycinR clones) was over 100.

Take SPβc2 human pseudo attB: the activity (hygromycinR clones) in data set [2] was over 100.
